For this data set, the system named is NCCCNCCCCNCCCN
The experiment in a line: colorimetric DTNB SSAT assay. It counts as biochemical, Homo sapiens. Conditions: 0.25 mM AcCoA, pH 7.5, 37 °C.

With SAT1 (Homo sapiens), the Km (usually the substrate concentration at which the rate is half of its maximum) was 73.10 ± 8.328 µM.

These data come from article doi:10.1101/2024.10.18.618978v3.
